The text below walks through data of patent US20030044911A1.

Holding throughout (assay): cell-based or functional assay
Assay [1] deals with N-type calcium channel formed by human brain α1B subunit together with rabbit β3 subunit, expressed in Xenopus oocytes (human; rabbit) (UniProt Q00975).
The target of assay [2] is rabbit cardiac α1C subunit, modified cDNA ΔN60 truncated by 60 amino acids at the N-terminal end, expressed in Xenopus oocytes (rabbit) (UniProt P15381).
Assay [3] addresses rat brain α1G subunit expressed from cRNA in Xenopus oocytes (rat) (UniProt O54898).

UniProt Q00975, sequence (Q00975 whole entry, chain 1 of 2, the tested form may be a part): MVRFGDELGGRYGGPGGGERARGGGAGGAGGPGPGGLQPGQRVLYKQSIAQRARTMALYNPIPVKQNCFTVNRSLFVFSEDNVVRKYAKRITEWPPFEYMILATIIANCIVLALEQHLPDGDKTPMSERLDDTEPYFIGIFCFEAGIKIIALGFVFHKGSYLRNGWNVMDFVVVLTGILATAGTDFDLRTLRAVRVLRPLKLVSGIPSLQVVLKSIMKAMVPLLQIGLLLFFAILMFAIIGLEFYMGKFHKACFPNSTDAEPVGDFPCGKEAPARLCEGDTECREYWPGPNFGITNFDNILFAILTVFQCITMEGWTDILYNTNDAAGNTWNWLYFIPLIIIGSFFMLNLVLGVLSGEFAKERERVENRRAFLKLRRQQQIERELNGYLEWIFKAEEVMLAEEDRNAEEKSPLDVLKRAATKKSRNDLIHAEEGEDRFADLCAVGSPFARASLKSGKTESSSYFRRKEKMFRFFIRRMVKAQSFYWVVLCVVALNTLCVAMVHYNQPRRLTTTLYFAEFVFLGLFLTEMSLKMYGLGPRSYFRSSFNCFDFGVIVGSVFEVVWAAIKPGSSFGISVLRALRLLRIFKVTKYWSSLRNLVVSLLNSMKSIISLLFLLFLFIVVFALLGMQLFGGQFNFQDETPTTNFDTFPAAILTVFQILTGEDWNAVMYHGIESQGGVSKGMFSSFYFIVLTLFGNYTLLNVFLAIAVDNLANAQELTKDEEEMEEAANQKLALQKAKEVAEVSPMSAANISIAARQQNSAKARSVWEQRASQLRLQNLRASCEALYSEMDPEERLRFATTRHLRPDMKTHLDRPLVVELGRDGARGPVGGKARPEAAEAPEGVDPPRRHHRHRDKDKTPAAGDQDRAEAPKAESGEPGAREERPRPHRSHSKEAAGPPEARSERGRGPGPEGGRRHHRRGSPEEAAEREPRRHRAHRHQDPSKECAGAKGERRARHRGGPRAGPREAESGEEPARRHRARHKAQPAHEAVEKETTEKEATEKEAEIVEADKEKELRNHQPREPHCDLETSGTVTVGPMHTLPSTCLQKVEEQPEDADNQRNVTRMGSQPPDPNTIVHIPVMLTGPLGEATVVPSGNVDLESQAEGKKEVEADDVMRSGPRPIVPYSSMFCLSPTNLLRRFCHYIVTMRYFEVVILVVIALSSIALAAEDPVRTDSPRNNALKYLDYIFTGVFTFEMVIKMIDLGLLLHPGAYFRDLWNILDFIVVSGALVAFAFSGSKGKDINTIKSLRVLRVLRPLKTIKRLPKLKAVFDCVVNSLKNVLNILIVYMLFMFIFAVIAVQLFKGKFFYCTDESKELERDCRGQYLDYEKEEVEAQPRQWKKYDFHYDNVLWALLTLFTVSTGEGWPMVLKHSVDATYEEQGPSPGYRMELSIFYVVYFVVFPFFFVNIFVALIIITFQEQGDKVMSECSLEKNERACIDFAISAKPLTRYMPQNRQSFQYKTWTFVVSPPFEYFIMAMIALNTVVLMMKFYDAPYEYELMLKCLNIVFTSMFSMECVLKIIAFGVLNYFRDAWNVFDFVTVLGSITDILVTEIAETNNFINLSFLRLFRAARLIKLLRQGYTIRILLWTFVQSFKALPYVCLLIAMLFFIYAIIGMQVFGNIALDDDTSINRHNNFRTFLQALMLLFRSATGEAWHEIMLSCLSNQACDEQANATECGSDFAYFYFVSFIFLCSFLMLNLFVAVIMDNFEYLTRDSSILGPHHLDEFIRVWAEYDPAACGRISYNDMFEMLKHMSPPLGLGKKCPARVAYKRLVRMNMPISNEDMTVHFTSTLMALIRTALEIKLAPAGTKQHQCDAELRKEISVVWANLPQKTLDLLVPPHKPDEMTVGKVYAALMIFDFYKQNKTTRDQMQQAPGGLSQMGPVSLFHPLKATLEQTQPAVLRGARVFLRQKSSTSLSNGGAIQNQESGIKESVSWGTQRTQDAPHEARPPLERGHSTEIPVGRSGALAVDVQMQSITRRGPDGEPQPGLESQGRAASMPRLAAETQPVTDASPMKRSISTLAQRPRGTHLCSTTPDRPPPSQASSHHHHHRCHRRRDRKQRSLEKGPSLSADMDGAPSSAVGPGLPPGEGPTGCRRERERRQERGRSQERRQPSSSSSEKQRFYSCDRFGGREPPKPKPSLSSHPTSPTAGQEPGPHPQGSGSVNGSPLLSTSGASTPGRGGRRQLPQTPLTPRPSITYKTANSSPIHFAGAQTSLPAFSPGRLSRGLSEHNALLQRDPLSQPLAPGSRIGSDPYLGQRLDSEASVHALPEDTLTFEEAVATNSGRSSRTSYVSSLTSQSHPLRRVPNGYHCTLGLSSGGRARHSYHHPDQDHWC
UniProt Q00975, sequence (P54286 whole entry, chain 2 of 2, further chain, the tested form may be a part): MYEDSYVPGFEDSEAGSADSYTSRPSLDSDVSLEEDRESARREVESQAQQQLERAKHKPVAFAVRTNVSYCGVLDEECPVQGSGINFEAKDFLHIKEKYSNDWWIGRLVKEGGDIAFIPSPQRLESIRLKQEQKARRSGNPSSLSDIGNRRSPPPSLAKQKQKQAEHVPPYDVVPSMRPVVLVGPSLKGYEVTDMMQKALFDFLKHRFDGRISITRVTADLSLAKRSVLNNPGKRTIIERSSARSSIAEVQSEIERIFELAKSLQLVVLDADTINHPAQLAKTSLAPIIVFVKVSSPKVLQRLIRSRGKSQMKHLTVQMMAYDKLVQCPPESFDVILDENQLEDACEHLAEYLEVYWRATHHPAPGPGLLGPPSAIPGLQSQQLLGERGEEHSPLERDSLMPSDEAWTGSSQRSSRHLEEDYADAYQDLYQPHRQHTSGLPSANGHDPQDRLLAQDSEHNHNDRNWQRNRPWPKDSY
UniProt P15381, sequence (P15381 61-2171 limits assumed, stated change not applied): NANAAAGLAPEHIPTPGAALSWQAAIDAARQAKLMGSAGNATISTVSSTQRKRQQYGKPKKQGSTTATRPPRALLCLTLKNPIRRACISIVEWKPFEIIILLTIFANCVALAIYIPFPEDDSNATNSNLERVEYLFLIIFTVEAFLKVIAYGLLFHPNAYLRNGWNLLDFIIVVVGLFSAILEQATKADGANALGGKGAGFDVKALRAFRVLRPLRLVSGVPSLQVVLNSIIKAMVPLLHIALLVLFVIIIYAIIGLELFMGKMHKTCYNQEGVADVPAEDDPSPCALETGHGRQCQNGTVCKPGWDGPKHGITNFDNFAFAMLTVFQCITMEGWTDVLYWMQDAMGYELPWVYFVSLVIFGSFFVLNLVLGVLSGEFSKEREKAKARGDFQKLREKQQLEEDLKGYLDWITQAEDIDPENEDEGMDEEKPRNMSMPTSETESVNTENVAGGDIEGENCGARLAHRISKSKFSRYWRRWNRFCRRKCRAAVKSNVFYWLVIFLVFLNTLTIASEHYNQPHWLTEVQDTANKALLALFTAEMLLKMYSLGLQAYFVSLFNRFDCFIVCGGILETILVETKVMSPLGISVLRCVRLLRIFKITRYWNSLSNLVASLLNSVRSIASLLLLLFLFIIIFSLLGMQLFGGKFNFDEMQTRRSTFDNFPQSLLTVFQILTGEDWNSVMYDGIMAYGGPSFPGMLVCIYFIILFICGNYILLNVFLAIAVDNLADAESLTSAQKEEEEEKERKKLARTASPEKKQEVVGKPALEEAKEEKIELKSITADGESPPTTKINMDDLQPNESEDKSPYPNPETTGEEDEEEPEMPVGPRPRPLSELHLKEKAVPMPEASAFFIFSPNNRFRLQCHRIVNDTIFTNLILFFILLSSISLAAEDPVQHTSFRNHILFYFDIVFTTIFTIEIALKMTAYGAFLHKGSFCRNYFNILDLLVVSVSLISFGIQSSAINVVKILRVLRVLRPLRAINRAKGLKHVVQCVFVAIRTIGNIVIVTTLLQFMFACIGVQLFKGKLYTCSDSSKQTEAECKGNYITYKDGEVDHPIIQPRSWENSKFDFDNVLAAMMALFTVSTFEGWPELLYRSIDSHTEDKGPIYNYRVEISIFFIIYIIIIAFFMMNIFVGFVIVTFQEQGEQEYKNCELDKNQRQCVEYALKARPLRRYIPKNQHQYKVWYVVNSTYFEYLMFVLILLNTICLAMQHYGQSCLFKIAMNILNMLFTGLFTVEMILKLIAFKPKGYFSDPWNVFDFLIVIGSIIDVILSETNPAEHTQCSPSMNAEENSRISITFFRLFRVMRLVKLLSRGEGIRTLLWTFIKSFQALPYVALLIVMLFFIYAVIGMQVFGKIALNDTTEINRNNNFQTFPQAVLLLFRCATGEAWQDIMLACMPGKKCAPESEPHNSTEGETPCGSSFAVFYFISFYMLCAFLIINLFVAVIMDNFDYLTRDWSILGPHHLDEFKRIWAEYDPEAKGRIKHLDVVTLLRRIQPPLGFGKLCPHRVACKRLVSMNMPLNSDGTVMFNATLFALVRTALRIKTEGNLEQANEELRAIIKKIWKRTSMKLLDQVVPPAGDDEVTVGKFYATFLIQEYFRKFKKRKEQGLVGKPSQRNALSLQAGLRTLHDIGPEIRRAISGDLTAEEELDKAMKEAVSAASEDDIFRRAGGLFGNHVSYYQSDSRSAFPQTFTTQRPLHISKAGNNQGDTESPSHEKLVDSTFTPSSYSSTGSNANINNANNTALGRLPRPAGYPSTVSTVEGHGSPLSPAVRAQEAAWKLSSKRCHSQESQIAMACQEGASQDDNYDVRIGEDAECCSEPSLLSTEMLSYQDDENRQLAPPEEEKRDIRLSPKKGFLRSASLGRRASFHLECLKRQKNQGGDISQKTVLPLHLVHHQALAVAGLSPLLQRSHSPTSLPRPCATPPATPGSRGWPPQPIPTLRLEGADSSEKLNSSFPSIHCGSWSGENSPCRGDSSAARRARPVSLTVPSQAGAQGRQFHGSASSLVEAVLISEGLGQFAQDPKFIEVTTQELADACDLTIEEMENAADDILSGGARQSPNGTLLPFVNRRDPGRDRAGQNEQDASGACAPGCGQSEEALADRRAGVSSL

As for “rabbit skeletal muscle α2δ-1 subunit expressed from cRNA in Xenopus oocytes (from UniProt P13806 27-1106)”, in assay [1], the current remaining at the end of a 50 ms test pulse to +20 mV, percent of peak current (inactivation) (% of peak current) was 33; the fold increase of N-type current magnitude turned out to be 9 fold; the peak barium current (N-type), two-electrode voltage clamp in Xenopus oocytes is 9.1 µA.

Take “α2δ-2 subunit expressed from cRNA in Xenopus oocytes (from UniProt Q9NY47 19-1150)”: the L-type peak current amplitude at +30 mV, α1C/α2δ-2 against α1C alone, Xenopus oocytes in assay [2] was determined as 201%. For the same substance, in assay [1], the current remaining at the end of a 50 ms test pulse to +20 mV, percent of peak current (inactivation) (% of peak current) came to 59 and the peak barium current (N-type), two-electrode voltage clamp in Xenopus oocytes is 7.6 µA. Further, in assay [3], the T-type current amplitude, α1G/α2δ-2 against α1G alone, Xenopus oocytes stood at 176%.
